In patent US20240173377A1 (EPIVAX, published 2024):

Key:
Experiment in all cases: competition HLA binding assay: soluble HLA, labeled control peptide, capture on anti-human DR antibody, time-resolved fluorescence
[1] = biological target: T1, HLA DRB1*0401 (human)
T1 construct: Described only as a soluble HLA molecule; also called soluble HLA molecule

[2] = biological target: T2, HLA DRB1*0301 (human)
T2 construct: Described only as a soluble HLA molecule; also called soluble HLA molecule

[3] = biological target: T3, HLA DRB1*0701 (human)
T3 construct: Described only as a soluble HLA molecule; also called soluble HLA molecule

[4] = biological target: T4, HLA DRB1*1301 (human)
T4 construct: Described only as a soluble HLA molecule; also called soluble HLA molecule

[5] = biological target: T5, HLA DRB1*0101 (human)
T5 construct: Described only as a soluble HLA molecule; also called soluble HLA molecule

[6] = biological target: T6, HLA DRB1*1101 (human)
T6 construct: Described only as a soluble HLA molecule; also called soluble HLA molecule

Measured: binding result

B1: SEQ ID NO 115 (peptide)
peptide: ILTIHFTGHSFIYGK
notes: L-amino acid Tregitope, assayed alongside its retro-inverso counterpart
binds: all assays above

B2: SEQ ID NO 114 (peptide)
peptide: EEQYNSTYTVVSVLTVLHQD
notes: as for B1
binds: all assays above
